Test results reported in paper PMC9304225.
“And” between values parts separate entries of the source, which are not always exact repeats. Identical values can stand only once.

Key:
[1] = target: RING_(MUL1):UBE2D2 complex (UniProt Q969V5); experiment: ITC
UBE2D2 = UBE2D2 (UniProt P62837); experiment: ITC
[2] = target: p53 transactivation domain (residues 1–73) (human) (UniProt P04637); experiment: NMR titration
p53 transactivation domain (residues 1–73) (human), sequence (P04637 1-73): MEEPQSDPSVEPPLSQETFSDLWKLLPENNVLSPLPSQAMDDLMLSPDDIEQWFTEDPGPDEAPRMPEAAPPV

p53 transactivation domain (residues 1–73), sequence (P04637 1-73): as above
RING domain of MUL1 (residues 298–352), sequence (Q969V5 298-352): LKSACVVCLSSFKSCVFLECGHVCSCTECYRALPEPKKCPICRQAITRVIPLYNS

Row | Substance | Kd [1] | dH [1] | stoichiometry N [1] | Kd [2] [µM] | other results
1 | AD39 peptide (p53 residues 39–57) | 184 µM and 175 µM and 193 µM | -1.13 kcal/mol and -1.15 kcal/mol and -1.12 kcal/mol | 0.88 and 0.89 and 0.87 | – | –
2 | RING domain of MUL1 (residues 298–352) (from UniProt Q969V5 298-352) (domain or fragment) | – | – | – | – | Kd (UBE2D2): 43 µM and 28 µM and 13 µM; dH (UBE2D2): 1.5 kcal/mol
3 | RING_(MUL1):UBE2D2 complex (from UniProt Q969V5 298-352; P62837 1-147) | – | – | – | 171 | –

More lines, main results first:

Row | Kd [1] | dH [1] | stoichiometry N [1] | Kd [2] [µM] | Substance | other results
4 | – | – | – | 735 | UBE2D2 (from UniProt P62837 1-147) (enzyme) | –
5 | 111 µM | -0.673 kcal/mol | 1.01 | – | p53 transactivation domain (residues 1–73) (from UniProt P04637 1-73) (domain or fragment) | –
